According to IntAct's records for PubMed 19250911:

Molecular target: T1, nbr1_human NBR1 (UniProt Q14596)
T1 sequence: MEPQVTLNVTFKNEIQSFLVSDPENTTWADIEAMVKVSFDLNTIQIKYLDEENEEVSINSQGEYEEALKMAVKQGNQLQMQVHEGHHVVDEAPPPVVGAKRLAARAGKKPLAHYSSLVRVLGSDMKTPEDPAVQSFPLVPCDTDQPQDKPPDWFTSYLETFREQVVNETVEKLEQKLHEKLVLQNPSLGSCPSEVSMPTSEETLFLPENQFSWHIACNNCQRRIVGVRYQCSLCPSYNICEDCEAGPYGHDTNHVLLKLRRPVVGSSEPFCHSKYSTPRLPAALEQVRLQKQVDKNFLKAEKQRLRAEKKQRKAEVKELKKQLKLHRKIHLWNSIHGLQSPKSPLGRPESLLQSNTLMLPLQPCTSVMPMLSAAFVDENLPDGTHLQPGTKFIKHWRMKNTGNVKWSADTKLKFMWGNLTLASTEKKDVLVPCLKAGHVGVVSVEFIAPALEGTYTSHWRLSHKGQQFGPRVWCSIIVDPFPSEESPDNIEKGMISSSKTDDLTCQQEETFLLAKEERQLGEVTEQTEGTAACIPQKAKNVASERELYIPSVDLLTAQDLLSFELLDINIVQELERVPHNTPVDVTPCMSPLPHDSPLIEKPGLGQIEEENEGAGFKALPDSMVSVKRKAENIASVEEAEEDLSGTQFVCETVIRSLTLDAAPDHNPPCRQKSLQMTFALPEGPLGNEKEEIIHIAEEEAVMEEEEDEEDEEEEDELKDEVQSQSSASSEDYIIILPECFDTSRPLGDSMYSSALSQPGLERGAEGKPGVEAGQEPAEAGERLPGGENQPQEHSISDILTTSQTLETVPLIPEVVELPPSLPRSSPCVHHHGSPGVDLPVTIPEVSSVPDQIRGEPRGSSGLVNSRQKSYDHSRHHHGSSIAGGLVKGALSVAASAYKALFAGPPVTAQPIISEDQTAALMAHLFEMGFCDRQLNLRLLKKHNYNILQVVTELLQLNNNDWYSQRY

Row | effect of a mutation on the interaction | Substance
1 | decreasing interaction | Microtubule-associated protein 1 light chain 3 beta (Homo sapiens) (from UniProt Q9GZQ8) R10A;R11A
2 | disrupting interaction | Microtubule-associated protein 1 light chain 3 beta (Homo sapiens) (from UniProt Q9GZQ8) R70A
